From the nanobody polyreactivity screen of Harvey et al. (2022) come the findings set out here.

This data set is described as follows: yeast display, Sf9 membrane polyspecificity reagent, FACS + sequencing; frameworks hold sequencing errors. Summed up: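 Polyreactivity labels are assigned by the sorting gate from which each nanobody was recovered. The gates were low and high (top ~1%), set on anti-HA fluorescence for expression and streptavidin fluorescence for reagent binding. Before sorting, galactose-induced (36–48 hours) yeast display cells were stained for 1 hour at 4 °C with 10% biotinylated, detergent-solubilized Sf9 membrane reagent.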
Turning to “QVQLVESGGGLVQAGGSLRLSCDASGSTFLTNTMGWYRQAPGKERELVAAISSGDSTYYADSVKGRFTISRDNAKNTVYLQLNSLKPEVTAVYYCARDGGWRNVPRDYWGQGTQVTVSS”, the “polyreactivity (PSR sort gate)” value is listed as “low polyreactivity”.

For the sequence “QVQLVESGGGLVQAGGSLRLSCDASGSTFPVNAMGWYRQAPGKERELVAAISSRGSSTYYADSVKGRFTISRDNAKNTVYLQMNSLKPEDTAVYYCAAPQRYPRFYYWGQGTQVTVSS”, the “polyreactivity (PSR sort gate)” value is recorded as “high polyreactivity”. For “QVQLVESGGGLVQAGGSLRLSCDASGSTFRANAMGWYRQAPGKERELVAAISWSGGRTYYADSVKGRFTISRDNAKNTVYLQMNSLKPEYTAVYYCAAPKLTSYDSWGQGTQVTVSS”, the “polyreactivity (PSR sort gate)” value is reported as “high polyreactivity”. As for “QVQLVESGGGLVQAGGSLRLSCDASGSTFVGYTMGWYRQAPGKERELVAAITWRGGITYYADSVKGLFTISRDNAKNTVYLQMKSLKPEDTAVYYCAGARYRHGRSGTYDVTGEYWGQGTQVTVSS”, the “polyreactivity (PSR sort gate)” value is recorded as “high polyreactivity”. For “QVQLVESGGGLVQAGGSLRLSCDASGSTFYPNAMGWYRQPPGKERELVAAITDSVCTTNYADSVKGRFTISRDNAKNTVYLQMNSLKPEDTAVYYCAKVKYYWNGYRYYYWGQGTQVTVSS” the value was “low polyreactivity”; for “QVQLVESGGGLVQAGGSLRLSCDASGSTFYYNAMGWYRQAPGKERELVADISRGGSTYYADSVKGRFTISRDNAKNTVYLQMNSLKPEDTAVYDCAAQTYLLSQWWWFDIDYGYWGQGTQVTVSS”, “low polyreactivity”; for “QVQLVESGGGLVQAGGSLRLSCDASGTLSPYAMGWYRQAPGKERELVAVITSNTGRTYADSVKGRFTISRYNSKNTVYLQKNTLNPQDTAFFYCYWGQGTQVTVTS”, “low polyreactivity”.

Turning to “QVQLVESGGGLVQAGGSLRLSCEASGSTFLRNAMGWYRQAPGKKGSWVATISYAGDSTYYADSVKGRFTLSRDNAKNTVYLQMNSLKPEDTAVYYCAASYSLTFWDKDDYWGQGTQVTVSS”, the “polyreactivity (PSR sort gate)” value was “low polyreactivity”. On to “QVQLVESGGGLVQAGGSLRLSCGASGFIFVRYAMGWYRQAPGKERELVAAITKGGGRTYYADSVKGRFTISRDNAKNTVYLQMNSLKPEDTAVYYCATGGAHGRERDYGGQGTQVTVSS”, for which the “polyreactivity (PSR sort gate)” value was “high polyreactivity”. Turning to “QVQLVESGGGLVQAGGSLRLSCGASGFTFSGNVMGWYRQAPGKEREFVAAITSRGGSSYYADSVKGRFTISRDNAKNTVYLQMNSLKPEDTAVYYCNRRRWYFFSLDYWGQGTQVTVSS”, the “polyreactivity (PSR sort gate)” value is “high polyreactivity”. For the sequence “QVQLVESGGGLVQAGGSLRLSCGASGLTFPLYAMGWYRQAPGKERELVAAITFSSGSTRYADSVKGRFTISRDNAKNTGSFQMNSLKPEDTALYYCAAVWYTYRTGPWYDYWGQGTQVTVSS”, the “polyreactivity (PSR sort gate)” value is “high polyreactivity”. For “QVQLVESGGGLVQAGGSLRLSCGASGNTFYPNAMGWYRQAPGKERELVAAITTSGVTTYYADSVKGSFTISRDNAKNTVYLQINSLKPEDTAVYYCAAYWSRDKYYYWGQGTQVTVSS” the value was “low polyreactivity”; for “QVQLVESGGGLVQAGGSLRLSCGASGRIFGRYAMGWYRQAPAKERELVAVITFSGGDTFYADSVKGRFTISRDNAKNTVYLQMNSLKPEDTAVYYCAKSQGFETYRNVSIFGYWGQGTQVTVSS”, “low polyreactivity”. In the case of “QVQLVESGGGLVQAGGSLRLSCGASGRNFPGNAMGWYRQAPGKEREFVAVITSRTGNTYYADSVKGRFTISRDTAKNTVYLQMNSLKPEDSAVYYCNGEQYIWSEDYWGQGTQVSVSS”, the “polyreactivity (PSR sort gate)” value is “low polyreactivity”. For “QVQLVESGGGLVQAGGSLRLSCGASGRTFSYYPMGWYRQAPGKERELVAAITSSGGRTYYADSVKGRFTISRDNAKNTVYLQMNSLKPEDTAVYYCAKELVKRYYWGQGTQVTVSS”, the “polyreactivity (PSR sort gate)” value is “high polyreactivity”. For “QVQLVESGGGLVQAGGSLRLSCGASGSTFAINAMGWYRQAPGKERELVAAINWSGTTTYYADSVKGRFTISRDNAKNTVYLQMNSLKPEDTAVYYCNARYYVLRGYDYWGQGTQVTVSS” the value was “low polyreactivity”; for “QVQLVESGGGLVQAGGSLRLSCGASGSTFNWYTMGWYRQAPGKERELVDAISMNGGRTYYADSVKWRFTISRDKAKNTVYLQMNSLKPEDTAVYYCAAQISFYFAQYNLARFRGYYWGQGTQVTVSS”, “high polyreactivity”. The result for “QVQLVESGGGLVQAGGSLRLSCGASGSTFPTYAMGWYRQAPGKERELVAVITSSGGRTYYADSVKGRFTISRDNAKNTVYLQMNSLKPEDTAVYYCAKGSGTIYNLYDYWGQGTQVTVSS” reads “high polyreactivity”.

Consider “QVQLVESGGGLVQAGGSLRLSCGATGTTFYYYAMGWYRQAPGKERELVPGINTSGGNTYYADSVKGRFTISRDNAKNTVYLQMNSLKPEDTAVYYCAVEGGSLHYAWYLWGYRSGGEYWGQGTQVTVSS”, for which the “polyreactivity (PSR sort gate)” value was “high polyreactivity”.

With “QVQLVESGGGLVQAGGSLRLSCPASGFIINVYVMGWYRQAPGKERELVAAISGGGSTYYADSVKGRFTISRDNAKNTVSLQMNSLKPEDTAVYYCAAVYYYQNEGYDFWGQGTQVTVSS”, the “polyreactivity (PSR sort gate)” value is listed as “low polyreactivity”. For the sequence “QVQLVESGGGLVQAGGSLRLSCPASGFTFSYYVMGWYRQSPGKERELVAAISSGGRTYYADSVKGRFTISRDNAKNTVYFQMNSLKPEDTAVYYCAAVRYSNEDDYWGQGTQVTVSS”, the “polyreactivity (PSR sort gate)” value is “high polyreactivity”. In the case of “QVQLVESGGGLVQAGGSLRLSCPASGHIFDYNALGWYRQAPGKERELVAAITSGGTTTYADSVKGRFTISRDNAKHTVYLQMNSLKPEDTAVYYCARKRYFGGWSRYGYGYWGQGTQVTVSS”, the “polyreactivity (PSR sort gate)” value is given as “high polyreactivity”. Turning to “QVQLVESGGGLVQAGGSLRLSCPASGIIFHPYAMGWYRQAPGKERQLVAVITWPGDSTYYADSVKGRFTISRDNAKNTVYVQMNSLKPEDTAVYYCNVEAWGTSGELPYDYWGQGTQVTVSS”, the “polyreactivity (PSR sort gate)” value was “low polyreactivity”. “QVQLVESGGGLVQAGGSLRLSCPASGNIFWWNARGWYRQAPGKERELVAAITSDSTTYYADSVKGRFTISRDNAKNTVYLQMNSLKPEDTAVYYCAAYSYGGQGVDYGYWGQGTQVTVSS”: the “polyreactivity (PSR sort gate)” value is “low polyreactivity”. As for “QVQLVESGGGLVQAGGSLRLSCPASGRIFTSYAMGWYRQEPGKERELVAAINRGGSTYYADSVKGRFTISRDNAKNTVYLQMNSLKPEDTAVYYCNASQPYNPEFDYWRQGTQVTVSS”, the “polyreactivity (PSR sort gate)” value is recorded as “low polyreactivity”. As to “QVQLVESGGGLVQAGGSLRLSCPASGRIFVRNAMGWYRQAPGKERELVAAITTSGGRTYYADSVKGRFTISRDLAKNPVYLQMNSLKPEDTAVYYCAAETRYRNFPYYYWGQCTQVTVSS”, the “polyreactivity (PSR sort gate)” value was “high polyreactivity”. The result for “QVQLVESGGGLVQAGGSLRLSCPASGRILYLNVLGWYRQEPGKERELVASITVSGGITYYADSVKGRFTISRDNAKNTVYLQMNSLKPEDTAVYYCAVDAYPPFFYFTSVWFSYDYWGQGTQVTVSS” reads “low polyreactivity”; that for “QVQLVESGGGLVQAGGSLRLSCPASGRTFKRYAMGWYRQEPGKEMELVASISWRGGSTYYADSVKGRFTISRDNAKNTVYLQMNSLKPEDTAVYYCAAEGPGNVYKLDYWGQGTQVTVSS”, “low polyreactivity”; that for “QVQLVESGGGLVQAGGSLRLSCPASGRTFYLYAMGWYRQAPGKVRELVARISGGGGRTYYADSVKGRFTISRDNAKNTVYLQMNSLKPEDSAVYYCNAQSPRGFTTPRQVYPLNGYWGQGTQVTVSS”, “high polyreactivity”.

In the case of “QVQLVESGGGLVQAGGSLRLSCPASGSIFGWYPMAWYRQAPGKERELVAAITFYSVNTYYQDSVKGRFTISRDNAKNNVYLQMNSLKPEDTAVYYCSARGATVVSRGKLYYWGQGTQVSVSS”, the “polyreactivity (PSR sort gate)” value is given as “low polyreactivity”. As for “QVQLVESGGGLVQAGGSLRLSCPASGSIFNSYAMGWYRQAPGKERELVAAISSGGSTNYADSVKGRFTISRDNAKNTVYLQMNSLKPEDTAVYYCAKGSRKSGYKYYHGRVWFGYWGQGTQVTVSS”, the “polyreactivity (PSR sort gate)” value was “high polyreactivity”.

“QVQLVESGGGLVQAGGSLRLSCPASGSIFYFYGMGWYRQAPGKEREFVAAISLYGGSTYYADSVKGRFTISRDNAKNTVYFQMNSLKPEDTAVYYCAARAWSYYHGKEDYWGQGTQVTVSS”: the “polyreactivity (PSR sort gate)” value is on record as “high polyreactivity”. Consider “QVQLVESGGGLVQAGGSLRLSCPASGSIVGYYVMGWYRQAPGKERELVAAISWSSGSTYYADSVKGRFTISRDNAKNTVYLQKNSLKPEDTAVYYCNASNVYFWFVTLEFDYWGQGTQVTVSS”, for which the “polyreactivity (PSR sort gate)” value is reported as “low polyreactivity”. Consider “QVQLVESGGGLVQAGGSLRLSCPASGSSSVYNAMGWYRQAPGKERELVAAISWSGGRTSYADSVKGRFTISRDIAKNTVYLQMNSLKPEDTAVYFCAAHTVYSPPRVAGPGYDYWGQGTQVTVSS”, for which the “polyreactivity (PSR sort gate)” value is “low polyreactivity”. For “QVQLVESGGGLVQAGGSLRLSCPASGSTFPYYAMGWYRQAPGKERELVARINWGGSSTYYADSVKGRFTISRDNAKNTVYLQMNSLKPEDTAVYYCARYSSRWSLMDYWGQGTQVTVSS” the value was “high polyreactivity”. On to “QVQLVESGGGLVQAGGSLRLSCPASGSTFQYYHMGWYRQEPGKERELVASITGSGDSTYYADSVKGRFTISRDNAKNTVYLQMNSLNPEDTAVYYCAAQITWSGYYDYWGQGTQVTVSS”, for which the “polyreactivity (PSR sort gate)” value was “low polyreactivity”. For “QVQLVESGGGLVQAGGSLRLSCPASGSTFRSNVMGWYRQAPGKERELVAAITSSGGSTYYADSVKGRFTISRDNAKNTVYLQMNSLKPEDTAVYYCAAVGYGWDPYKRLVRHSYDSWGQGTQVTVSS”, the “polyreactivity (PSR sort gate)” value is “low polyreactivity”. For the sequence “QVQLVESGGGLVQAGGSLRLSCPASGSTFRYYAMGWYRPAPGKERELVAGISSSGGSTYYADSVKGRFTISRDNAKNTVYLQMNSLKPEDTAVYYCNAARGTSRSWAVFADYDYWGQGSQVTVSS”, the “polyreactivity (PSR sort gate)” value is “high polyreactivity”. For “QVQLVESGGGLVQAGGSLRLSCPASGSTFYGYVMGGYRQAPGKERELVAAISGSTYYADSVKGRFTISRDNAKNTVYLQMNSLKPEDTAVYYCNADDYRSYGGDSWGQGTQVTVSS” the value was “low polyreactivity”. For the sequence “QVQLVESGGGLVQAGGSLRLSCPASGYILHKYAMGSYRQAPGKERELVATISGGGGSTYYADSVKGRFTISRDNAKNTVYLQMNSLKPEDTAVYYCAIEYPWLPRSYEYGGQGTQVTVSS”, the “polyreactivity (PSR sort gate)” value is “low polyreactivity”. With “QVQLVESGGGLVQAGGSLRLSCPDSVFTFGATVMGWYRQAPGKEREFVAGITWSGDSTYYADSVKGRFTISRDNAKNTVYFQMNSLKPEDTAVYYCAADVYDGAYILDYDYWGQGTQVTVSS”, the “polyreactivity (PSR sort gate)” value is given as “low polyreactivity”.
